From patent US8551717B2, “Method for determining sumoylation” (Medizinische Hochschule Hannover, priority 2008, dated 2013)
Blank lines part the entries; values can stand above or below the compound they belong to.

Legend:
STAT1-FRB and STAT1-FKBP = molecular target: T1, STAT1-FRB and STAT1-FKBP (Homo sapiens, UniProt P42224+P42345+P62942); test: USDDS: AP21967-induced in vivo SUMOylation of STAT1 fusion proteins, western blot; type: cell-based; conditions: HEK293
T1 construct: seven C-terminal amino acids of the human STAT1a in the STAT1-FKBP/FRB fusion proteins are missing; FKBP domain (in STAT1-FKBP); expressed in transfected cells; host or cells: HEK293
T1 sequence (P42224 1-743 limits assumed): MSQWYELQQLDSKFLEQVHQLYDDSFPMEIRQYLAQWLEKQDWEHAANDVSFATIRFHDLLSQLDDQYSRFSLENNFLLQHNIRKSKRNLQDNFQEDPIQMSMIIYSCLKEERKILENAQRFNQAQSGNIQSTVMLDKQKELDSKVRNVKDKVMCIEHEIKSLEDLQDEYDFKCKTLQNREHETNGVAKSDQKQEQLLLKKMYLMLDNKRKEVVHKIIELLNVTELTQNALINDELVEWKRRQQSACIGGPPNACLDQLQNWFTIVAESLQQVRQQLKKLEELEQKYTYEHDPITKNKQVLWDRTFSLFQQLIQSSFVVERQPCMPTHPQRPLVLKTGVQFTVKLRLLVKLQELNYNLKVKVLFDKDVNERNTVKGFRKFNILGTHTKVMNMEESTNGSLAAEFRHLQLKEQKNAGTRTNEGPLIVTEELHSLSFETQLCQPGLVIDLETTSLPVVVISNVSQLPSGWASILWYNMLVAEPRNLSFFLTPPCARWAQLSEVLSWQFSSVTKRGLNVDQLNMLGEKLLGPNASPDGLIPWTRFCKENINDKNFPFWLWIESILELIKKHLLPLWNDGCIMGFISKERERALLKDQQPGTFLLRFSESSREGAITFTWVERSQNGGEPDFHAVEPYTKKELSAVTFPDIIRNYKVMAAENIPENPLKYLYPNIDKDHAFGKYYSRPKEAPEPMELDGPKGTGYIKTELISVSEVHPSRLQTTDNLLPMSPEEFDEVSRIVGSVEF
T1 sequence (P63279 whole entry partner, the tested form may be a part): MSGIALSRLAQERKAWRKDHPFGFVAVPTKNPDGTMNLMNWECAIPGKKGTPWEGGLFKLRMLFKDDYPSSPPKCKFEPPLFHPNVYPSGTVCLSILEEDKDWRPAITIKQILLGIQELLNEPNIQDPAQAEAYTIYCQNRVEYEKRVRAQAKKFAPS
T1 sequence (P62942 2-108 limits assumed): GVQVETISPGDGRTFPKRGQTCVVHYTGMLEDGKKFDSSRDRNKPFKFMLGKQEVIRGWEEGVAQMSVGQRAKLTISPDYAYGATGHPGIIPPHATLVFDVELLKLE
T1 sequence (P42345 2021-2113 limits assumed): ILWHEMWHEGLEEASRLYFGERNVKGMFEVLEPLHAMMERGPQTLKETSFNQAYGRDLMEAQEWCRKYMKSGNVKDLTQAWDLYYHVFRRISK
From the text: (§1) To identify new SUMOylation substrates and to study the function of SUMOylation the Ubc9/substrate dimerisation-dependent SUMOylation system (USDDS) was developed which consists of fusions of the SUMOylation substrate and of the SUMO-conjugating enzyme Ubc9 to the chemically activatable heterodimerisation domains FKBP and FRB, respectively, as shown in FIG. 2. When the substrate protein fused to FKBP is coexpressed with Ubc9-FRB, treatment of HEK293 cells with the rapamycin-related dimerizer AP21967 induces SUMOylation of the substrate protein fused to FKBP at its specific SUMOylation site. […] Dependent on an EcoRl site in the coding sequence, seven C-terminal amino acids of the human STAT1a in the STAT1-FKBP/FRB fusion proteins are missing. For the SUMOylation analysis HEK293 (human embryonic kidney cells) cells have been used. HEK293 cells were cultured in Dulbecco's modified Eagle's medium with high glucose, complemented with 10% fetal calf serum, 2 mM L-glutamine, 100 U/ml penicillin and […] streptomycin. We performed transfection of HEK293 cells using the polyethylenimine transfection reagent. HEK293 cells of a fresh confluent 10 cm plate were transferred on a 12-well plate. […]
(§2) When p53-FRB or STAT1-FRB were coexpressed with Ubc9-FKBP together with EGFP-SUMO1, no significant EGFP-SUMO1 conjugation of STAT1-FRB and of p53-FRB could be detected (FIG. 3A,B). […]

p53-FRB and p53-FKBP = test: USDDS: AP21967-induced in vivo SUMOylation of p53 fusion proteins, western blot; type: cell-based, human; conditions: HEK293
From the text: as §1, §2

U-MK2 = molecular target: T2, U-MK2 (Homo sapiens, UniProt P49137+P63279); test: Trans-SUMOylation by U-MK2; type: cell-based; conditions: protein 2 construct coexpressed with U-MK2 and EGFP-SUMO1 in HEK293
T2 construct: expressed in transfected cells; host or cells: HEK293
T2 sequence (P63279+P49137 fused): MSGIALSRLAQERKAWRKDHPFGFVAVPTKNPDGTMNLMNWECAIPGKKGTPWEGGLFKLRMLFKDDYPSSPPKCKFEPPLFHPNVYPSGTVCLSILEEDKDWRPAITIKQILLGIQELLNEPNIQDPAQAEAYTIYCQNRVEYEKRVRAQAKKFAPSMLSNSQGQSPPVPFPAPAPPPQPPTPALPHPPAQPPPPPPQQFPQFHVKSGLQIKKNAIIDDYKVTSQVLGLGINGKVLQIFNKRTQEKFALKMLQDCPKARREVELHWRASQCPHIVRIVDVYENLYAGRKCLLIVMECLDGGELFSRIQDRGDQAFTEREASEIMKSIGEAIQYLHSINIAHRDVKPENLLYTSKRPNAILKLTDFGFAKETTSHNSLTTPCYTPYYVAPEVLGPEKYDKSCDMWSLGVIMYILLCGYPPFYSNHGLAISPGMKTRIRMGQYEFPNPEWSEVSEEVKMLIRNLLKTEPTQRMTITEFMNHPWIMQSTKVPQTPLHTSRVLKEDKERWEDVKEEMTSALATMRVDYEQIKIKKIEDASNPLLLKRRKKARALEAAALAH

U-p38α = molecular target: T3, U-p38α (Homo sapiens, UniProt P63279+Q16539); test: Trans-SUMOylation by U-p38α; type: cell-based; conditions: protein 2 construct coexpressed with U-p38α and EGFP-SUMO1 in HEK293
T3 construct: expressed in transfected cells; host or cells: HEK293
T3 sequence (P63279+Q16539 fused): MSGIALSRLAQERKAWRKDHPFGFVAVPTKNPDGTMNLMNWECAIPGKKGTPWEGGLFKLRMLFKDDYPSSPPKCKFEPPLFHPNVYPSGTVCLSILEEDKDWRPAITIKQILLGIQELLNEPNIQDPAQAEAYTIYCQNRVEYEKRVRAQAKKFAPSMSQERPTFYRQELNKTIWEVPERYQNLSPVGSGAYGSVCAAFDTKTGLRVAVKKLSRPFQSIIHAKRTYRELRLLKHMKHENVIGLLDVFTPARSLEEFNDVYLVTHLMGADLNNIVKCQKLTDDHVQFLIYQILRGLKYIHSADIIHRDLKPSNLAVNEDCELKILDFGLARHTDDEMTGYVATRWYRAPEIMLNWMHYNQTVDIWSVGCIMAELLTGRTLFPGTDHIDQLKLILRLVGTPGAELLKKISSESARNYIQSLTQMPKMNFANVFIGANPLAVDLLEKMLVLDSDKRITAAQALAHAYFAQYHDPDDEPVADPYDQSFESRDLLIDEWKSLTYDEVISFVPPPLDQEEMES

p53-U = molecular target: T4, p53-U (Homo sapiens, UniProt P04637+P63279); test: Trans-SUMOylation by p53-U; type: cell-based; conditions: western blot
T4 construct: expressed in transfected cells; host or cells: HEK293

JUN-U = molecular target: T5, JUN-U (Homo sapiens, UniProt P05412+P63279); test: Trans-SUMOylation by JUN-U; type: cell-based; conditions: protein 2 construct coexpressed with JUN-U and EGFP-SUMO1 in HEK293; western blot; Table 2
T5 construct: expressed in transfected cells; host or cells: HEK293
T5 sequence (P05412+P63279 fused): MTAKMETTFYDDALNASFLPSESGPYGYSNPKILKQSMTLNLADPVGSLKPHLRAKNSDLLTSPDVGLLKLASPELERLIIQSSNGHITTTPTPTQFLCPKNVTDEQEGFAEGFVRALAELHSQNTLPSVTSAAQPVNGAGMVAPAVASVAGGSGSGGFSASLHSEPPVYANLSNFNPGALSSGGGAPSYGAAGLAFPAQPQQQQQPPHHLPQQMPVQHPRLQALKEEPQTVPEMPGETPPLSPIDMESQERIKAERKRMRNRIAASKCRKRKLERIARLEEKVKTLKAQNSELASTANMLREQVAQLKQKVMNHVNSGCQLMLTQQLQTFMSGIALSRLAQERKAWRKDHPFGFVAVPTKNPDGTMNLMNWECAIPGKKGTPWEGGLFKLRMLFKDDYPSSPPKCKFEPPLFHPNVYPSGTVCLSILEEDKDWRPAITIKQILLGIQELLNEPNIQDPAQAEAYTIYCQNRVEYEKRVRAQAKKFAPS

MK2-U = molecular target: T6, MK2-U (Homo sapiens, UniProt P49137+P63279); test: Trans-SUMOylation by MK2-U; type: cell-based; conditions: protein 2 construct coexpressed with MK2-U and EGFP-SUMO1 in HEK293
T6 construct: expressed in transfected cells; host or cells: HEK293
T6 sequence (P49137+P63279 fused): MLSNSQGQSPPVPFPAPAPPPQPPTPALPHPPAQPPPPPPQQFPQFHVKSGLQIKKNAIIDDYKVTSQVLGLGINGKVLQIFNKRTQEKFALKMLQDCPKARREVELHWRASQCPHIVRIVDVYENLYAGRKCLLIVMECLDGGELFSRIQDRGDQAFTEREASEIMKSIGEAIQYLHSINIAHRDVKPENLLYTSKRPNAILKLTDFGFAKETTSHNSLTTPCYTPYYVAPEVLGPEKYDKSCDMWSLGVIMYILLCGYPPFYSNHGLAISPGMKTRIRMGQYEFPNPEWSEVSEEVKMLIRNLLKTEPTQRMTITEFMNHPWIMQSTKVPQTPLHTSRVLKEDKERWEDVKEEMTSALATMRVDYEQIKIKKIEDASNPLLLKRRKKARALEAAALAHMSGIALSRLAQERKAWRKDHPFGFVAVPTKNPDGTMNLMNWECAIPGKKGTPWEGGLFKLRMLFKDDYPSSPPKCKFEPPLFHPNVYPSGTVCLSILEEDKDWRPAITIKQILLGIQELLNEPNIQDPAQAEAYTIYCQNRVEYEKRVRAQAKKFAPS

U-MK5 = molecular target: T7, U-MK5 (Homo sapiens, UniProt P63279+Q8IW41); test: Trans-SUMOylation by U-MK5; type: cell-based; design: key: (++), strong TransSUMOylation; (+), TransSUMOylation; (+/−) weak TransSUMOylation; (−) no detectable TransSUMOylation; conditions: protein 2 construct coexpressed with U-MK5 and EGFP-SUMO1 in HEK293, western blot
T7 construct: expressed in transfected cells; host or cells: HEK293
T7 sequence (P63279+Q8IW41 fused): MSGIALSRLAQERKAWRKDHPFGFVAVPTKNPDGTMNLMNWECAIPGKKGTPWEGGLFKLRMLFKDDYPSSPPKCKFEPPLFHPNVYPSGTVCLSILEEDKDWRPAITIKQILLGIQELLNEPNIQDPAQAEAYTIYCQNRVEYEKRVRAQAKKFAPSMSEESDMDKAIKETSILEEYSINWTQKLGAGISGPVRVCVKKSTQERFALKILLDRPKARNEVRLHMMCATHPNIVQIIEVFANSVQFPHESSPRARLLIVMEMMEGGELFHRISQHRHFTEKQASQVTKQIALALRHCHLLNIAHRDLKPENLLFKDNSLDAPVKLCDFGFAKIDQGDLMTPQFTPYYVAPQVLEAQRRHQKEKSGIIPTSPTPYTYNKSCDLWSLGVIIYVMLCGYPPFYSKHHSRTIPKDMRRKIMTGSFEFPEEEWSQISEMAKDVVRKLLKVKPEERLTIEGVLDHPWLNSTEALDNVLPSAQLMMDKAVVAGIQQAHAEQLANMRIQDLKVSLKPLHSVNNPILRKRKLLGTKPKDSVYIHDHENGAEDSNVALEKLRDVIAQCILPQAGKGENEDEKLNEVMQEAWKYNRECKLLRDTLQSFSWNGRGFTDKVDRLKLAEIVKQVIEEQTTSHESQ
From the text: To identify new SUMOylation substrates and to study the function of SUMOylation the Ubc9/substrate dimerisation-dependent SUMOylation system (USDDS) was developed which consists of fusions of the SUMOylation substrate and of the SUMO-conjugating enzyme Ubc9 to the chemically activatable heterodimerisation domains FKBP and FRB, respectively, as shown in FIG. 2. When the substrate protein fused to FKBP is coexpressed with Ubc9-FRB, treatment of HEK293 cells with the rapamycin-related dimerizer AP21967 induces SUMOylation of the substrate protein fused to FKBP at its specific SUMOylation site. […] Dependent on an EcoRl site in the coding sequence, seven C-terminal amino acids of the human STAT1a in the STAT1-FKBP/FRB fusion proteins are missing. For the SUMOylation analysis HEK293 (human embryonic kidney cells) cells have been used. HEK293 cells were cultured in Dulbecco's modified Eagle's medium with high glucose, complemented with 10% fetal calf serum, 2 mM L-glutamine, 100 U/ml penicillin and […] streptomycin. We performed transfection of HEK293 cells using the polyethylenimine transfection reagent. HEK293 cells of a fresh confluent 10 cm plate were transferred on a 12-well plate. After 12-24 h incubation about 70% cell confluence is reached. For each well 45 μl of serum/antibiotic free DMEM medium is mixed with 750 ng of the transfection-purity expression vector DNA (all together 47 μl) and vortexed. Then, 3 μl of vortexed polyethylenimin stock solution (1 mg/ml) is added and the mixture is vortexed. After incubation at room temperature for 10 min 450 μl fresh DMEM with antibiotics is added to the mixture and vortexed. The medium on the cells was then completely removed and immediately, the 500 μl transfection mix was added carefully to each well. The 12 well plate was rocked to ensure a proper distribution of the DNA/transfection reagent complex. After an incubation of the cells for 24 h at a 37° C. in a humidified CO2-incubator (5%) the cells were lysed in 150 μl Laemmli (2×) gel loading buffer (160 mM Tris-HCL, pH 6.8, 4% (w/v) sodium dodecyl sulphate (SDS), 20% (v/v) glycerol, 0.5% β-mercaptoethanol (v/v), 0.008% (w/v) bromophenol blue) and incubated for 10 min at 95° C. For western blot analysis the proteins were separated by SDS-PAGE, blotted on a PVDF membrane and developed with specific primary antibodies (α-Ubc9 (H81, Santa Cruz), α-pY701-STAT1 (Tyr701, Cell Signaling), α-STAT1 (Cell Signaling), α-p53 (1C12, Cell Signaling), α-SUMO1 (Cell Signaling), a horseradish peroxidase (HRP)-conjugated secondary antibody (different companies), the ECL+ (Amersham) or Immobilon™ Western (Millipore) and the LAS-3000 imaging system (Fuji).
As shown above, the SUMOylation of a protein of interest can be induced by the heterodimerisation with a binding protein fused to Ubc9. To find out if Trans-SUMOylation is useful for the characterisation of common protein interactions, protein binding pairs well known from the literature or found in two hybrid screens. […] Therefore the protein pairs were coexpressed with EGFP-SUMO1 in HEK293 cells and after 24h the transfectants were lysed and the protein extracts were analyzed in western blots.
Protein-protein interactions described in the cited references were tested for Trans-SUMOylation. Each specific protein-protein interaction was tested by coexpression of different combinations of protein 1 fused to Ubc9 (U) with protein 2 mostly fused two a tag (HA, FLAG, Myc, GST, ST). (++), strong TransSUMOylation; (+), TransSUMOylation; (+/−) weak TransSUMOylation; (−) no detectable TransSUMOylation; (MEKK1ca) the activated MAP3 kinase MEKK1, that can enhance protein SUMOylation, was coexpressed.
Protein-protein interaction of each pair of protein 1/protein 2 was tested by coexpression of different combinations of a protein 1 fused to Ubc9 (U) with protein 2 mostly fused two a Tag (HA, FLAG, GST, ST). […]

U-CSNK2B = molecular target: T8, U-CSNK2B (Homo sapiens, UniProt P63279+P67870); test: Trans-SUMOylation by U-CSNK2B; type: cell-based; design: key: (++), strong TransSUMOylation; (+), TransSUMOylation; (+/−) weak TransSUMOylation; (−) no detectable TransSUMOylation; conditions: protein 2 construct coexpressed with U-CSNK2B and EGFP-SUMO1 in HEK293, western blot
T8 construct: expressed in transfected cells; host or cells: HEK293
T8 sequence (P63279+P67870 fused): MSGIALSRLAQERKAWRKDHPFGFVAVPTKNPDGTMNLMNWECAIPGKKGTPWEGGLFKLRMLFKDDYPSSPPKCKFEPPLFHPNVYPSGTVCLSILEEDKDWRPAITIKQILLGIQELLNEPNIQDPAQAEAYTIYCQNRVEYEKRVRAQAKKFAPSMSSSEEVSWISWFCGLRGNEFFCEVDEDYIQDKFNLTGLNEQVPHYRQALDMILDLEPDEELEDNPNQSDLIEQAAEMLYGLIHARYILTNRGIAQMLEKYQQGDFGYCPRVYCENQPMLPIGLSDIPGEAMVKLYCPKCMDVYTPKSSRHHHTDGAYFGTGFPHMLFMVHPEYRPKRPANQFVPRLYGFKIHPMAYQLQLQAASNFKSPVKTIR
From the text: as §1, with “plate. After 12-24 h incubation about 70% cell confluence is reached. For each well 45 μl of serum/antibiotic free DMEM medium is mixed with 750 ng of the transfection-purity expression vector DNA (all together 47 μl) and vortexed. Then, 3 μl of vortexed polyethylenimin stock solution (1 mg/ml) is added and the mixture is vortexed. After incubation at room temperature for 10 min 450 μl fresh DMEM with antibiotics is added to the mixture and vortexed. The medium on the cells was then completely removed and immediately, the 500 μl transfection mix was added carefully to each well.” for “plate.”
(§3) As shown above, the SUMOylation of a protein of interest can be induced by the heterodimerisation with a binding protein fused to Ubc9. […] Therefore the protein pairs were coexpressed with EGFP-SUMO1 in HEK293 cells and after 24h the transfectants were lysed and the protein extracts were analyzed in western blots. […]

U-PSMC3 = molecular target: T9, U-PSMC3 (Homo sapiens, UniProt P17980+P63279); test: Trans-SUMOylation by U-PSMC3; type: cell-based; design: key: (++), strong TransSUMOylation; (+), TransSUMOylation; (+/−) weak TransSUMOylation; (−) no detectable TransSUMOylation; conditions: protein 2 construct coexpressed with U-PSMC3 and EGFP-SUMO1 in HEK293; western blot; Table 1
T9 construct: expressed in transfected cells; host or cells: HEK293
T9 sequence (P63279+P17980 fused): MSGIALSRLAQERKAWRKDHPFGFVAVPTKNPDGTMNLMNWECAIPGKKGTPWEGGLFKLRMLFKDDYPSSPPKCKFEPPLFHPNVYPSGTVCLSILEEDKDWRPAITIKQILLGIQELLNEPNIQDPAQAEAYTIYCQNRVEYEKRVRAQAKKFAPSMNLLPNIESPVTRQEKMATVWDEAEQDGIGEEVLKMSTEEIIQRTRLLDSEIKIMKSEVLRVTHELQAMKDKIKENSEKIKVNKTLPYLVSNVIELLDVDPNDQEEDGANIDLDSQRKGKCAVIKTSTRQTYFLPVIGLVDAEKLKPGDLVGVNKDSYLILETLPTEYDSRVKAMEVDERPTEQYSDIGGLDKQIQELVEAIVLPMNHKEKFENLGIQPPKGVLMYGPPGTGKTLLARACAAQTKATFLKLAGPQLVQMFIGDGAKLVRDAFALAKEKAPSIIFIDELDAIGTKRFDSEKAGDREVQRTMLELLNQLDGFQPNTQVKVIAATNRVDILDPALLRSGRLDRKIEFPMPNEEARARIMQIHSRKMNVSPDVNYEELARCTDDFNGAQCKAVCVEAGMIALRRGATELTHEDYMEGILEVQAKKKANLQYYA
From the text: as §1, with “streptomycin.” for “streptomycin. We performed transfection of HEK293 cells using the polyethylenimine transfection reagent. HEK293 cells of a fresh confluent 10 cm plate were transferred on a 12-well plate.”
as §3

CSNK2B-U = molecular target: T10, CSNK2B-U (Homo sapiens, UniProt P63279+P67870); test: Trans-SUMOylation by CSNK2B-U; type: cell-based; conditions: protein 2 construct coexpressed with CSNK2B-U and EGFP-SUMO1 in HEK293; MEKK1ca coexpressed; Table 1
T10 construct: expressed in transfected cells; host or cells: HEK293

[1] = protein 2 construct coexpressed with P53-U (p53-U) and EGFP-SUMO1 in HEK293, Table 1

Compound: ERK1: ERK1, protein 2 construct without tag
Trans-SUMOylation (U-MK2; western blot, Table 2): + | Trans-SUMOylation (U-p38α; western blot, Table 1): + | Trans-SUMOylation (p53-U; [1]): −

Compound: GST-ERK3: ERK3 fused to GST tag
Trans-SUMOylation (U-MK2; western blot, Table 2): − | Trans-SUMOylation (U-p38α; western blot, Table 2): − | Trans-SUMOylation (U-MK5; Table 1): +

Compound: GST-FOS: FOS fused to GST tag
Trans-SUMOylation (MK2-U; western blot, Table 2): −

Compound: GST-MK2: MK2 fused to GST tag
Trans-SUMOylation (JUN-U): − | Trans-SUMOylation (U-MK2; MEKK1 coexpressed, Table 2): ++ (MEKK1) | Trans-SUMOylation (U-MK2; western blot, Table 2): + | Trans-SUMOylation (MK2-U; MEKK1 coexpressed, Table 2): ++ (MEKK1) | Trans-SUMOylation (MK2-U; western blot, Table 2): + | Trans-SUMOylation (U-p38α; MEKK1ca (Table 1B: MEKK1) coexpressed, Table 1): ++ (MEKK1ca) | Trans-SUMOylation (U-p38α; western blot, Table 1): + | Trans-SUMOylation (U-MK5; Table 2): (+/−) | Trans-SUMOylation (p53-U; protein 2 construct coexpressed with p53-U and EGFP-SUMO1 in HEK293, Table 2): − | Trans-SUMOylation (U-CSNK2B; Table 2): (+/−)

Compound: GST-PSMC3: PSMC3 fused to GST tag
Trans-SUMOylation (MK2-U; western blot, Table 2): − | Trans-SUMOylation (U-PSMC3): +

The next lines start with results.

SUMOylation of STAT1-FKBP (STAT1-FRB and STAT1-FKBP; STAT1-FKBP in combination with Ubc9-FRB and EGFP-SUMO1, AP21967): induced SUMOylation | SUMOylation of STAT1-FRB (STAT1-FRB and STAT1-FKBP; STAT1-FRB coexpressed with Ubc9-FKBP and EGFP-SUMO1, AP21967 1 μM, western blot α-STAT1): strongly enhanced SUMOylation
Compound: CO[C@H]1[C@@H](O)[C@H](C)C[C@H](C)/C=C/C=C/C=C(\C)[C@@H](c2c[nH]c3c(C)cccc23)C[C@@H]2CC[C@@H](C)[C@@](O)(O2)C(=O)C(=O)N2CCCC[C@H]2C(=O)O[C@H]([C@H](C)C[C@@H]2CC[C@@H](O)[C@H](OC)C2)C[C@H](O)[C@H](C)/C=C(\C)[C@H]1O [AP21967]
SUMOylation of p53-FKBP (p53-FRB and p53-FKBP; p53-FKBP in combination with Ubc9-FRB and EGFP-SUMO1, AP21967): induced SUMOylation | SUMOylation of p53-FRB (p53-FRB and p53-FKBP; p53-FRB coexpressed with Ubc9-FKBP and EGFP-SUMO1, AP21967 1 μM, western blot α-p53): strongly enhanced SUMOylation

Trans-SUMOylation (JUN-U): − | Trans-SUMOylation (U-MK2; western blot, Table 1): + | Trans-SUMOylation (MK2-U; western blot, Table 1): + | Trans-SUMOylation (U-MK5; Table 1): + | Trans-SUMOylation (p53-U; [1]): − | Trans-SUMOylation (U-CSNK2B; Table 1): −
Compound: FLAG-p38α: p38α fused to FLAG tag

Trans-SUMOylation (CSNK2B-U): + (MEKK1ca)
Compound: HA-CSNK2B: CSNK2B fused to HA tag
